The results in this text go back to US7452690.

This series has as its system PL-FXa-b2AR fusion protein (ED-FXa cleavage site-beta2-adrenergic receptor) expressed on transiently transfected HEK293 cells.

On to Factor Xa, for which the “EFC activity as relative luminescent units (RLU)” value was “a difference in about 30000 RLUs was observed over a range in concentration of FXa of about 10^-3 to 10^1 µg/mL” and the “readings (chemiluminescence, β-galactosidase enzyme fragment complementation after cleavage)” value is on record as “the transiently infected cells showed an increase in the readings from 0.01 ng/well to 1000 ng/well of Factor Xa”.
